In publication PMC9482650, “Quantitative fragmentomics allow affinity mapping of interactomes” (Nature Communications, 2022):
Blank lines part the entries; values can stand above or below the binder they belong to.

Key:
Experiment in all cases: holdup assay
Set-up in all cases: key: below the threshold = too weak to quantify, mostly under pKd 3.1 to 4
[1] = target: T1, APBA1_1, Q02410
T1 sequence (Q02410 651-752, limits assumed, looked up): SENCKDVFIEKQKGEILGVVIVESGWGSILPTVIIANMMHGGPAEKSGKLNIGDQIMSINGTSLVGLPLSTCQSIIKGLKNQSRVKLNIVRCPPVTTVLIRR

[2] = target: DLG1_2, Q12959
Chain of DLG1_2, Q12959 (Q12959 314-412): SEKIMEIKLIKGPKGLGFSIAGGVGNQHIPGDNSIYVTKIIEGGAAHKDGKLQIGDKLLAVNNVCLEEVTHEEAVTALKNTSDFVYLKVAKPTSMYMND

[3] = target: T2, DLG3_1, Q92796
T2 sequence (Q92796 125-227, limits assumed, looked up): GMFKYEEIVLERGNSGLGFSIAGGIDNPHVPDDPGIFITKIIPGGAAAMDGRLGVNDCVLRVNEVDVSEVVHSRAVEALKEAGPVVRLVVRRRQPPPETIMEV

[4] = target: T3, DLG3_2, Q92796
T3 sequence (Q92796 221-321, limits assumed, looked up): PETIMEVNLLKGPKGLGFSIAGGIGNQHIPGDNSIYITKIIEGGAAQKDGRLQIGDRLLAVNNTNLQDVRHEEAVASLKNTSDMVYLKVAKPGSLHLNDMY

[5] = target: FRMPD2_1, Q68DX3
Chain of FRMPD2_1, Q68DX3 (Q68DX3 770-861): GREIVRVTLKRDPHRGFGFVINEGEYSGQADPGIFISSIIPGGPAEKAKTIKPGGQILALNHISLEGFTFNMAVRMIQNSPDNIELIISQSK

[6] = target: FRMPD3, Q5JV73
Chain of FRMPD3, Q5JV73 (Q5JV73 12-100): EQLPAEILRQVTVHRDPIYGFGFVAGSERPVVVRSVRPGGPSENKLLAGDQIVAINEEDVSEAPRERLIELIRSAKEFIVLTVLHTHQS

[7] = target: T4, GRIP1_5, Q9Y3R0
T4 sequence (Q9Y3R0 568-668, limits assumed, looked up): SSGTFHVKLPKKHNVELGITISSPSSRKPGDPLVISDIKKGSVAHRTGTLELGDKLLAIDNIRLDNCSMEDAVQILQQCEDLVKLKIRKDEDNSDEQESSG

[8] = target: Inadl_1, Q8NI35
Chain of Inadl_1, Q8NI35 (Q8NI35 113-229): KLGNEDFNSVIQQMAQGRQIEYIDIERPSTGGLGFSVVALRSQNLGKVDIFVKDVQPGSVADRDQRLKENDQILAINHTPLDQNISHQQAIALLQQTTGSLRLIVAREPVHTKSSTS

[9] = target: Inadl_10, Q8NI35
Chain of Inadl_10, Q8NI35 (Q8NI35 1673-1763): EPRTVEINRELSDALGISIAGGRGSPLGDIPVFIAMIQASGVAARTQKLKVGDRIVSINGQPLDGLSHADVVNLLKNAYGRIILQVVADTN

[10] = target: LAP2, Q96RT1
Chain of LAP2, Q96RT1 (Q96RT1 other isoform, or with tags, fused parts or gaps): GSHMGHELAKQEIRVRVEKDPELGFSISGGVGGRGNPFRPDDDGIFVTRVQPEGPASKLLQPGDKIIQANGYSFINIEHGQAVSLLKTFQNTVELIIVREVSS

[11] = target: T5, LIN7B, Q9HAP6
T5 sequence (Q9HAP6 88-185, limits assumed, looked up): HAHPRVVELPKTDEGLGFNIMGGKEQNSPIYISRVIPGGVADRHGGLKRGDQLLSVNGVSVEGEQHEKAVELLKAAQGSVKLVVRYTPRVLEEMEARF

[12] = target: MAGI2_6, Q86UL8
Chain of MAGI2_6, Q86UL8 (Q86UL8 1141-1229): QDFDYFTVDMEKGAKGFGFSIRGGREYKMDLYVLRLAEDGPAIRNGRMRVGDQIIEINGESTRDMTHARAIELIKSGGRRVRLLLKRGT

[13] = target: T6, MPDZ_10, O75970
T6 sequence (O75970 1624-1722, limits assumed, looked up): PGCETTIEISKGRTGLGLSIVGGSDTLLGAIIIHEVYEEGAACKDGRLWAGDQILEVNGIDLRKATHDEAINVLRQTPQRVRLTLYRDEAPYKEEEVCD

[14] = target: T7, MPDZ_5, O75970
T7 sequence (O75970 695-796, limits assumed, looked up): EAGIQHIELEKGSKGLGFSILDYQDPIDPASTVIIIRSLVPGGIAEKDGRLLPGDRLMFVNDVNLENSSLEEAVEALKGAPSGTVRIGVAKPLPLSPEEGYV

[15] = target: NHERF2_2, Q15599
Chain of NHERF2_2, Q15599 (Q15599 142-238): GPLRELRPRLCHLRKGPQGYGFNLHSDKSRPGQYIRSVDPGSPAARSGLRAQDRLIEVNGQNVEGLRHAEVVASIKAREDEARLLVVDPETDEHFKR

[16] = target: T8, NHERF3_1, Q5T2W1
T8 sequence (Q5T2W1 4-100, limits assumed, looked up): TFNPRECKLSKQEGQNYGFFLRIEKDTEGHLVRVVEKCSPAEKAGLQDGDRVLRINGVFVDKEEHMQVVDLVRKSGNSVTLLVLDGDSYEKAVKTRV

[17] = target: T9, NHERF3_4, Q5T2W1
T9 sequence (Q5T2W1 373-468, limits assumed, looked up): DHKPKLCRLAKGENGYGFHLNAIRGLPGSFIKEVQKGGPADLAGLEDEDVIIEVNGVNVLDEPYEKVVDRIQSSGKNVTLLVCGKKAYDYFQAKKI

[18] = target: NHERF4_1, Q86UT5-2
Chain of NHERF4_1, Q86UT5-2 (Q86UT5 other isoform, or with tags, fused parts or gaps): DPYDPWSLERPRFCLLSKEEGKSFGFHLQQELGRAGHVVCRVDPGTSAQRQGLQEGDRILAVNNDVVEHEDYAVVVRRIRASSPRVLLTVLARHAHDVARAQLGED

[19] = target: NHERF4_4, Q86UT5
Chain of NHERF4_4, Q86UT5 (Q86UT5 464-550): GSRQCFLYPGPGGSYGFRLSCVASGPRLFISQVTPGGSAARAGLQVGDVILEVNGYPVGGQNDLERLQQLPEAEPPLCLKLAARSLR

[20] = target: PDLIM1, O00151
Chain of PDLIM1, O00151 (O00151 1-87): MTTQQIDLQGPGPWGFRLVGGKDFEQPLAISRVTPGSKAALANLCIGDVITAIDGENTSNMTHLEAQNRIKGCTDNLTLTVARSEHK

[21] = target: T10, PDZD2_2, O15018
T10 sequence (O15018 329-429, limits assumed, looked up): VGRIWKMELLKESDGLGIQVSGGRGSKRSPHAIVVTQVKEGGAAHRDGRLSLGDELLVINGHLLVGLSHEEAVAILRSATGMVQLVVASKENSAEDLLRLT

[22] = target: PICK1, Q9NRD5
Chain of PICK1, Q9NRD5 (Q9NRD5 17-115): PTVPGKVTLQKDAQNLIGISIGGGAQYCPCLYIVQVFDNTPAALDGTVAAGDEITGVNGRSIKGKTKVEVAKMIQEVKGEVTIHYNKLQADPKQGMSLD

[23] = target: PTPN3, P26045
Chain of PTPN3, P26045 (P26045 505-587): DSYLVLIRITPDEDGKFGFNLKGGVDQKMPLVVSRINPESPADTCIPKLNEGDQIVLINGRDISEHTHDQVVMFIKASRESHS

[24] = target: T11, SIPA1L2, Q9P2F8
T11 sequence (Q9P2F8 945-1036, limits assumed, looked up): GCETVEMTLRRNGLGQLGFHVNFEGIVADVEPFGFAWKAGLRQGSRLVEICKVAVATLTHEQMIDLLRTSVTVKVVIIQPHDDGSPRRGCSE

[25] = target: SNX27, Q96L92
[26] = target: TJP1_3, Q07157
Chain of TJP1_3, Q07157 (Q07157 416-512): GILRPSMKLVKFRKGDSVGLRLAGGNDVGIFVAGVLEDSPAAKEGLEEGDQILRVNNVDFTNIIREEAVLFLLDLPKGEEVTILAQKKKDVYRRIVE

[27] = target: TJP2_1, Q9UDY2
Chain of TJP2_1, Q9UDY2 (Q9UDY2 24-128): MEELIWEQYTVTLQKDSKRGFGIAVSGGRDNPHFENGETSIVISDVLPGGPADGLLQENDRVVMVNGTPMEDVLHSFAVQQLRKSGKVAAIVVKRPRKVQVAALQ

[28] = plain residues with an end cap or a label only (N-terminal biotin on a linker: ttds)
[29] = plain residues with an end cap or a label only (N-terminal biotin on a linker: ahx)

Binder: PFRSRSPSEV [GPR6, P46095]
pKd [1, 28]: below the threshold
pKd [2, 28]: 3.87
pKd [3, 28]: below the threshold
pKd [4, 28]: below the threshold
pKd [5, 28]: below the threshold
pKd [6, 28]: below the threshold
pKd [7, 28]: below the threshold
pKd [8, 28]: below the threshold
pKd [9, 28]: below the threshold
pKd [10, 28]: below the threshold
pKd [11, 28]: below the threshold
pKd [12, 28]: below the threshold
pKd [13, 28]: below the threshold
pKd [14, 28]: below the threshold
pKd [15, 28]: below the threshold
pKd [16, 28]: below the threshold
pKd [17, 28]: below the threshold
pKd [18, 28]: below the threshold
pKd [19, 28]: below the threshold
pKd [20, 28]: below the threshold
pKd [21, 28]: 3.8
pKd [22, 28]: below the threshold
pKd [23, 28]: 3.95
pKd [24, 28]: below the threshold
pKd [25, 28]: below the threshold
pKd [26, 28]: below the threshold
pKd [27, 28]: below the threshold

Binder: SHSSKGETAV [FZD7, O75084]
pKd [1, 28]: below the threshold
pKd [2, 28]: 4.78
pKd [3, 28]: 4.01
pKd [4, 28]: 4.53
pKd [5, 28]: 3.8
pKd [6, 28]: below the threshold
pKd [7, 28]: below the threshold
pKd [8, 28]: below the threshold
pKd [9, 28]: below the threshold
pKd [10, 28]: 4.04
pKd [11, 28]: below the threshold
pKd [12, 28]: 4.43
pKd [13, 28]: below the threshold
pKd [14, 28]: below the threshold
pKd [15, 28]: below the threshold
pKd [16, 28]: 4.22
pKd [17, 28]: below the threshold
pKd [18, 28]: below the threshold
pKd [19, 28]: below the threshold
pKd [20, 28]: below the threshold
pKd [21, 28]: 4.09
pKd [22, 28]: below the threshold
pKd [23, 28]: 4.84
pKd [24, 28]: below the threshold
pKd [25, 28]: 4.8
pKd [26, 28]: below the threshold
pKd [27, 28]: below the threshold

More lines, now with the values ahead:

pKd [1, 29]: below the threshold
pKd [2, 29]: 4.19
pKd [3, 29]: below the threshold
pKd [4, 29]: 4.27
pKd [5, 29]: 3.54
pKd [6, 29]: below the threshold
pKd [7, 29]: below the threshold
pKd [8, 29]: 3.82
pKd [9, 29]: 3.7
pKd [10, 29]: below the threshold
pKd [11, 29]: below the threshold
pKd [12, 29]: 3.6
pKd [13, 29]: 3.96
pKd [14, 29]: below the threshold
pKd [15, 29]: below the threshold
pKd [16, 29]: below the threshold
pKd [17, 29]: 3.63
pKd [18, 29]: below the threshold
pKd [19, 29]: 3.49
pKd [20, 29]: below the threshold
pKd [21, 29]: 3.55
pKd [22, 29]: below the threshold
pKd [23, 29]: 3.48
pKd [24, 29]: below the threshold
pKd [25, 29]: 4.49
pKd [26, 29]: below the threshold
pKd [27, 29]: below the threshold
Binder: YNSFLSVTTV [PDZRN3, Q9UPQ7]

pKd [1, 29]: below the threshold
pKd [2, 29]: below the threshold
pKd [3, 29]: below the threshold
pKd [4, 29]: below the threshold
pKd [5, 29]: below the threshold
pKd [6, 29]: below the threshold
pKd [7, 29]: below the threshold
pKd [8, 29]: below the threshold
pKd [9, 29]: below the threshold
pKd [10, 29]: below the threshold
pKd [11, 29]: below the threshold
pKd [12, 29]: 3.54
pKd [13, 29]: below the threshold
pKd [14, 29]: below the threshold
pKd [15, 29]: 4.32
pKd [16, 29]: 4.55
pKd [17, 29]: below the threshold
pKd [18, 29]: 3.73
pKd [19, 29]: below the threshold
pKd [20, 29]: 3.51
pKd [21, 29]: below the threshold
pKd [22, 29]: below the threshold
pKd [23, 29]: 4.68
pKd [24, 29]: below the threshold
pKd [25, 29]: 5.54
pKd [26, 29]: below the threshold
pKd [27, 29]: below the threshold
Binder: PKMKLNETSF [SHKBP1, Q8TBC3]

pKd [1, 28]: below the threshold
pKd [2, 28]: 5.55
pKd [3, 28]: 4.52
pKd [4, 28]: 5.53
pKd [5, 28]: below the threshold
pKd [6, 28]: below the threshold
pKd [7, 28]: below the threshold
pKd [8, 28]: below the threshold
pKd [9, 28]: below the threshold
pKd [10, 28]: below the threshold
pKd [11, 28]: 3.81
pKd [12, 28]: below the threshold
pKd [13, 28]: below the threshold
pKd [14, 28]: below the threshold
pKd [15, 28]: below the threshold
pKd [16, 28]: below the threshold
pKd [17, 28]: below the threshold
pKd [18, 28]: below the threshold
pKd [19, 28]: below the threshold
pKd [20, 28]: below the threshold
pKd [21, 28]: 3.65
pKd [22, 28]: below the threshold
pKd [23, 28]: 4.44
pKd [24, 28]: below the threshold
pKd [25, 28]: 5.03
pKd [26, 28]: below the threshold
pKd [27, 28]: below the threshold
Binder: KLVIKTETTV [RASSF6, Q6ZTQ3]
